Source: the supplement of paper PMC9170038

Tested on: MS2 coat protein
Assay: apparent KD of MS2 coat protein; designed switch direction (-1 OFF switch, 1 ON switch): -1; higher = weaker reporter binding
Method in brief: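 Stalled E. coli RNA polymerase transcribed designed RNA switches on Illumina chips, which were then titrated with SNAP-549-labelled MS2 coat protein, doubling from 0.7 or 1.5 nM to 3 µM. Steps lasted from 0.8–1.5 h at the lowest concentration to 10–20 min at the highest. The apparent KD is each design's median over clusters of curve-fitted normalised fluorescence.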

[1] = Eterna round: R95, input ligand: microRNA oligo, concentration not stated
[2] = input ligand: microRNA oligo, concentration not stated

Sequence: AGCUAGUCAGGAUAUUCUAAAAAUUACAUGAGGAUCACCCAUGUGAAUGGACAAGGGUGUGAAGAAGGGACUAGCG [Omei Ex5 A11] (Eterna round: R97, puzzle: Exclusion 5)
- apparent KD of MS2 coat protein (input ligand: FMN 200 uM): 214 nM
- apparent KD of MS2 coat protein (input ligand: none): 540 nM

Sequence: AGCUAGUCAGGAUAUUCUAAUAAUUACAUGAGGAUCACCCAUGUGAAGAGACAAGGGUGUGAAGAAGGGACUAGCG [Omei Ex5 A1] (Eterna round: R97, puzzle: Exclusion 5)
- apparent KD of MS2 coat protein (input ligand: FMN 200 uM): 188 nM
- apparent KD of MS2 coat protein (input ligand: none): 600 nM

Sequence: AGCUAGUCAGGAUAUUCUAAUAAUUACAUGAGGAUCACCCAUGUGAAUAGACAAGGGUGUGAAGAAGGGACUAGCG [Omei Ex5 A5] (Eterna round: R97, puzzle: Exclusion 5)
- apparent KD of MS2 coat protein (input ligand: FMN 200 uM): 58.3 nM
- apparent KD of MS2 coat protein (input ligand: none): 366 nM

Sequence: AGCUAGUCAGGAUAUUCUAUUAAUUACAUGAGGAUCACCCAUGUGAAUGGACAAGGGUGUGAAGAAGGGACUAGCG [Omei Ex5 A13] (Eterna round: R97, puzzle: Exclusion 5)
- apparent KD of MS2 coat protein (input ligand: FMN 200 uM): 394 nM
- apparent KD of MS2 coat protein (input ligand: none): 2080 nM

Sequence: AGCUCAAAAGUGAGGAUAUCUAGGGUCAAAUGACCGGAGAAGGCACAUGAGGAUCACCCAUGUAACGCCAUGGA [Ceinveusar] (puzzle: Brourd's mod of Exclusion 4)
- apparent KD of MS2 coat protein [1]: 12.5 nM

Sequence: AGCUCUGCAGGAUAUGCCCGGGAUAACAUGAGGAUCACCCAUGUGACUGAUUGUUAUUCUGCAGAAGGGCAUGGGA [JL-EX5-4.15 ViennaUCT mod] (Eterna round: R97, puzzle: Exclusion 5)
- apparent KD of MS2 coat protein (input ligand: FMN 200 uM): 409 nM
- apparent KD of MS2 coat protein (input ligand: none): 637 nM

Sequence: AGCUGUGAGUGAGGAUAUCUGCUGUUGUCAGUCGGAGAAGGCGCGGACAGAACAUGAGGAUCACCCAUGUGUAUGGGCGGCCUC [Usatia] (Eterna round: R96, puzzle: Exclusion NG 1)
- apparent KD of MS2 coat protein (input ligand: FMN 200 uM): 217 nM
- apparent KD of MS2 coat protein [2]: 43.6 nM
- apparent KD of MS2 coat protein (input ligand: none): 85.5 nM

Sequence: AGCUGUGGCCGAGGAUAUACACAUGAGGAUCACCCAUGUAGGCGCGGAUACGCGCUAAAAUAAUUGUAGAAGGCGGUCUCAGCA [Eli eng2 - 054] (Eterna round: R96, puzzle: Exclusion NG 2)
- apparent KD of MS2 coat protein (input ligand: FMN 200 uM): 3.88 nM
- apparent KD of MS2 coat protein [2]: 5.92 nM
- apparent KD of MS2 coat protein (input ligand: none): 10.6 nM

Sequence: AGCUGUGGCCGAGGAUAUACACAUGAGGAUCACCCAUGUAGGUGCGGAUACUCGCACCAAUAAGUGUAGAAGGCGGUCUCAGCA [Eli eng2 - 057] (Eterna round: R96, puzzle: Exclusion NG 2)
- apparent KD of MS2 coat protein (input ligand: FMN 200 uM): 14.6 nM
- apparent KD of MS2 coat protein [2]: 13.2 nM
- apparent KD of MS2 coat protein (input ligand: none): 19.2 nM

Sequence: AGCUGUGGCCGAGGAUAUCACAUGAGGAUCACCCAUGUACAUGAUUAAGCCUGGUAACAGGCUCAUGAGAAGGCGGUCUCAGCA [Eli eng2 - 014] (Eterna round: R96, puzzle: Exclusion NG 2)
- apparent KD of MS2 coat protein (input ligand: FMN 200 uM): 12 nM
- apparent KD of MS2 coat protein [2]: 13.1 nM
- apparent KD of MS2 coat protein (input ligand: none): 20.6 nM

Sequence: AGCUGUGGCCGAGGAUAUCCACAUGAGGAUCACCCAUGUGAAUAGGGAAUUAACCCAUAACCGUGGGAGAAGGCGGUCUCAGCA [Eli eng2 - 049] (Eterna round: R96, puzzle: Exclusion NG 2)
- apparent KD of MS2 coat protein (input ligand: FMN 200 uM): 55.1 nM
- apparent KD of MS2 coat protein [2]: 48.6 nM
- apparent KD of MS2 coat protein (input ligand: none): 82.1 nM

Sequence: AGCUGUGGCCGAGGAUAUCCAGCCUUAAAUACCGACGUAUAGUCGGACAUGAGGAUCACCCAUGUGGAGAAGGUGGUCUCAGCA [Eli eng2 - 041] (Eterna round: R96, puzzle: Exclusion NG 2)
- apparent KD of MS2 coat protein (input ligand: FMN 200 uM): 93.1 nM
- apparent KD of MS2 coat protein [2]: 41.8 nM
- apparent KD of MS2 coat protein (input ligand: none): 42.7 nM

Sequence: AGCUGUGGCCGAGGAUAUCUAAAACUCAAAACCGAAAUAUAAUCGGACAUGAGGAUCACCCAUGUAGAGAAGGCGGUCUCAGCA [Eli eng2 - 078] (Eterna round: R96, puzzle: Exclusion NG 2)
- apparent KD of MS2 coat protein [2]: 59.4 nM

Sequence: AGCUGUGGCCGAGGAUAUCUAACAAUCCUAACCGAAAUAUAAUCGGACAUGAGGAUCACCCAUGUAGAGAAGGCGGUCUCAGCA [Eli eng2 - 074] (Eterna round: R96, puzzle: Exclusion NG 2)
- apparent KD of MS2 coat protein [2]: 68.1 nM

Sequence: AGCUGUGGCCGAGGAUAUCUAAUAAUCUCAACCGAAAUAUAAUCGGACAUGAGGAUCACCCAUGUAGAGAAGGCGGUCUCAGCA [Eli eng2 - 067] (Eterna round: R96, puzzle: Exclusion NG 2)
- apparent KD of MS2 coat protein [2]: 27.2 nM

Sequence: AGCUGUGGCCGAGGAUAUCUAGCUUCAAUAACCGAAAUAUAAUCGGACAUGAGGAUCACCCAUGUAGAGAAGGCGGUCUCAGCA [Eli eng2 - 084] (Eterna round: R96, puzzle: Exclusion NG 2)
- apparent KD of MS2 coat protein [2]: 22.3 nM

Sequence: AGCUGUGGCCGAGGAUAUCUAUCUUCAAUAACCGAAAUAUAAUCGGACAUGAGGAUCACCCAUGUAGAGAAGGCGGUCUCAGCA [Eli eng2 - 091] (Eterna round: R96, puzzle: Exclusion NG 2)
- apparent KD of MS2 coat protein [2]: 27.3 nM

Sequence: AGCUGUGGCCGAGGAUAUCUCAUAGUCCCAACCGAAAUAUAAUCGGACAUGAGGAUCACCCAUGUAGAGAAGGCGGUCUCAGCA [Eli eng2 - 071] (Eterna round: R96, puzzle: Exclusion NG 2)
- apparent KD of MS2 coat protein (input ligand: FMN 200 uM): 115 nM
- apparent KD of MS2 coat protein [2]: 40.7 nM
- apparent KD of MS2 coat protein (input ligand: none): 151 nM

Sequence: AGCUGUGGCCGAGGAUAUCUGAACUUUCAAACCGAAAUAUAAUCGGACAUGAGGAUCACCCAUGUAGAGAAGGCGGUCUCAGCA [Eli eng2 - 061] (Eterna round: R96, puzzle: Exclusion NG 2)
- apparent KD of MS2 coat protein [2]: 10.5 nM

Sequence: AGCUUUUUGCUCGUCUUAUACAUGAGGAUCACCCAUGUAUUGGACCACAUCGAUAGAUGUGGACCAAGAAGCGUGGU [Omdei Mir OFFv1 C4] (Eterna round: R97, puzzle: Sensor, turn-off variant 1)
- apparent KD of MS2 coat protein (input ligand: FMN 200 uM): 38.6 nM
- apparent KD of MS2 coat protein (input ligand: none): 39.7 nM

Sequence: AGCUUUUUGUUCGUCUUAUACAUGAGGAUCACCCAUGUAUUGGACCGCAUCGAUAGAUGUAGACCGAGAAGCAUGGG [Omdei Mir OFFv1 C6] (Eterna round: R97, puzzle: Sensor, turn-off variant 1)
- apparent KD of MS2 coat protein (input ligand: FMN 200 uM): 63 nM
- apparent KD of MS2 coat protein (input ligand: none): 55.3 nM

Sequence: AGCUUUUUGUUUUUGGGUGACAUGAGGAUCACCCAUGUCUUAUGGGCCCAAUAAUAAUAAAAUAAAAGGGACCCACG [-20.8, -41.27, a 31%] (Eterna round: R97, puzzle: Sensor, turn-off variant 1)
- apparent KD of MS2 coat protein (input ligand: FMN 200 uM): 457 nM
- apparent KD of MS2 coat protein (input ligand: none): 208 nM

Sequence: AGGACAUGAGGAUCACCCAUGUAGUGAGGUGUAUCCGAAGACGAGGAUAUACAGAGGAAAUAUCUGUAGAAGGUGUAAUAAAAU [Istediso] (Eterna round: R96, puzzle: Exclusion NG 3)
- apparent KD of MS2 coat protein (input ligand: FMN 200 uM): 725 nM
- apparent KD of MS2 coat protein [2]: 247 nM
- apparent KD of MS2 coat protein (input ligand: none): 299 nM

Sequence: AGGAGGAGUUCAGGAUAUUCGACAUGAGGAUCACCCAUGUGGGUAAUAUAUAGUAAAGAGAUAGAGAAGAAGGGAAGGGAGGAG [Exclusion NG2] (Eterna round: R96, puzzle: Exclusion NG 2)
- apparent KD of MS2 coat protein (input ligand: FMN 200 uM): 42.5 nM
- apparent KD of MS2 coat protein [2]: 23.5 nM
- apparent KD of MS2 coat protein (input ligand: none): 36 nM

Sequence: AGGCGCUAGUAGGAUAUCUGGAACGGAUUAUAAAGAGAAGGGCUGACAUGAGGAUCACCCAUGUGACCAAUGCG [Eternabot (L1) Solution 50] (Eterna round: R97, puzzle: Exclusion 6)
- apparent KD of MS2 coat protein (input ligand: FMN 200 uM): 41.2 nM
- apparent KD of MS2 coat protein (input ligand: none): 50.6 nM

Sequence: AGGGAUAAAGGAUAUACAUGAGGAUCACCCAUGUUGAGGAAAGUGAGAGGUGGCGAUAGUAGAAGGUUAGGUGG [JR_Exclu3_Sub083] (puzzle: Exclusion 3)
- apparent KD of MS2 coat protein [1]: 79.9 nM

Sequence: AGGGCACAUGAGGAUCACCCAUGUGAGGAUAUCCCGGUACUAUCGAUGUAGUAAUCGUGGAGAAGGCACACGAC [EX1 C.21] (Eterna round: R97, puzzle: Exclusion 1)
- apparent KD of MS2 coat protein (input ligand: FMN 200 uM): 90.3 nM
- apparent KD of MS2 coat protein (input ligand: none): 62.6 nM

Sequence: AGGUAACAUGAGGAUCACCCAUGUCAGGAUAUCAGUAAGAUGAGAAUAGAGUAGAGUAUGAGAAGGGACUAUAU [Excluse me! 21 - Jieux - Exclusion 1] (puzzle: Exclusion 1)
- apparent KD of MS2 coat protein [1]: 37.4 nM

Sequence: AGGUAACAUGAGGAUCACCCAUGUCAGGAUAUCAGUAAGAUUAGAAUAGAGUAGAGGAUGAGAAGGGACUAUAU [Excluse me! 19- Jieux - Exclusion 1] (puzzle: Exclusion 1)
- apparent KD of MS2 coat protein [1]: 42.7 nM

Sequence: AGGUAACAUGAGGAUCACCCAUGUCAGGAUAUCAUGAAGAGGAGAUUAGAGGAGAGGUUGAGAAGGGACUAUAU [Excluse me! 14 - Jieux - Exclusion 1] (puzzle: Exclusion 1)
- apparent KD of MS2 coat protein [1]: 57.1 nM

Sequence: AGGUACUUCAGGAGACAUGAGGAUCACCCAUGUUGAGUUAGCGAGGAUAUCGGUAACCAUUGUUAUGAGAAGGCGCAAACCAGA [Ex NG3 #42] (Eterna round: R96, puzzle: Exclusion NG 3)
- apparent KD of MS2 coat protein (input ligand: FMN 200 uM): 25.9 nM
- apparent KD of MS2 coat protein [2]: 15 nM
- apparent KD of MS2 coat protein (input ligand: none): 15.3 nM

Sequence: AGGUCACAUGAGGAUCACCCAUGUCAGGAUAUCUACAUUGAAGCCUCGGCUUCAAUGUAGAGAAGGGACAAUUA [E1/6-B2] (Eterna round: R97, puzzle: Exclusion 1)
- apparent KD of MS2 coat protein (input ligand: FMN 200 uM): 209 nM
- apparent KD of MS2 coat protein (input ligand: none): 72.2 nM

Sequence: AGGUCACAUGAGGAUCACCCAUGUGAGGAUAUUUACUCAAGAGCUUCGGCUCUCAAGUGAAGAAGGCGCAAUGA [EX1 #53] (Eterna round: R97, puzzle: Exclusion 1)
- apparent KD of MS2 coat protein (input ligand: FMN 200 uM): 34.6 nM
- apparent KD of MS2 coat protein (input ligand: none): 32.8 nM

Sequence: AGGUGACAUGAGGAUCACCCAUGUAAGGAUAUACGGUUAGUGGAGAGUUGGAAGAGAGGUAGAAGGUACGGAGC [JR_Exclu1_Sub059] (puzzle: Exclusion 1)
- apparent KD of MS2 coat protein [1]: 197 nM

Sequence: AGGUGAGCCGUCAGGAUAUGCGUUCCGUAGGGUCAGCAGAAGGGACAUGAGGAUCACCCAUGUUUCGCACGUGG [Veraxedi] (Eterna round: R96, puzzle: Brourd's mod of Exclusion 4)
- apparent KD of MS2 coat protein (input ligand: FMN 200 uM): 76.5 nM
- apparent KD of MS2 coat protein [2]: 23.5 nM
- apparent KD of MS2 coat protein (input ligand: none): 31.5 nM
